From patent publication US20220380436A1 (BOARD OF TRUSTEES OF THE UNIVERSITY OF ILLINOIS, published 2022)

Molecular target: T1, human PDGFRβ isoform 1, myc-tagged, expressed on Expi293F cells (human, UniProt P09619 33-1106)
T1 construct: not shown: N-terminal myc-tag and linker
Assay: flow cytometry, gH/gL/gO-sfGFP medium on Expi293F cells expressing PDGFRβ (negative control)

T1 sequence (P09619 33-1106): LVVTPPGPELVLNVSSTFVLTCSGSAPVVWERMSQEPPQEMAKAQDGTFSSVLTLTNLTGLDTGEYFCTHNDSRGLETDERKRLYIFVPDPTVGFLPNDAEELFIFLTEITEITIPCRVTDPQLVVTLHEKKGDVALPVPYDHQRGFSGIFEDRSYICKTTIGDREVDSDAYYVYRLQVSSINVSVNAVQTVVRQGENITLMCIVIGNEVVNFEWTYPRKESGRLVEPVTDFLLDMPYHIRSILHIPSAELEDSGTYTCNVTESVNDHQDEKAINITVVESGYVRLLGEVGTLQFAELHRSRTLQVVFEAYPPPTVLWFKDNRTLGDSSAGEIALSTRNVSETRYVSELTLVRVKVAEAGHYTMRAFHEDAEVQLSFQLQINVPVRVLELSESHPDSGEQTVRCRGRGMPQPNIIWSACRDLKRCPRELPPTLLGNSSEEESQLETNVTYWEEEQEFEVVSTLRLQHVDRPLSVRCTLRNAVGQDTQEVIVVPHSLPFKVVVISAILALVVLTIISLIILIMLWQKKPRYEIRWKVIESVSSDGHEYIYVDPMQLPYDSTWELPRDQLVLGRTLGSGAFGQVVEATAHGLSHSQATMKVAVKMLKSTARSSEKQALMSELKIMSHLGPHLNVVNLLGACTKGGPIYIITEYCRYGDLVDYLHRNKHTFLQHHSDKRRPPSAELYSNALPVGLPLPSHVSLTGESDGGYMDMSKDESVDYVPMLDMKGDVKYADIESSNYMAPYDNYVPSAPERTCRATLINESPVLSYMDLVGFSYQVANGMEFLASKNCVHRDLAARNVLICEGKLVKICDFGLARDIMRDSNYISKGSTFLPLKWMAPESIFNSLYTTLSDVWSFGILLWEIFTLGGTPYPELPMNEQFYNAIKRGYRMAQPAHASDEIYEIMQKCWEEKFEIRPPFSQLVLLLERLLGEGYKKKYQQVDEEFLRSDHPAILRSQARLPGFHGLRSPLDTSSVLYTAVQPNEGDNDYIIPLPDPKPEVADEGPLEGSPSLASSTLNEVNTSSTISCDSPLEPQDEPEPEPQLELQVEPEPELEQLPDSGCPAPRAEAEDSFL

B1: soluble HCMV glycoprotein trimer gH/gL/gO-sfGFP from strain TB40/E (other)
chain 1: […]
chain 2: VAVSVAPTAAEKVPAECPELTRRCLLGEVFQGDKYESWLRPLVNVTGRNGPLSQLIRYRPVTPEAANSVLLDDAFLDTLALLYNNPDQLRALLTLLSSDTAPRWMTVMRGYSECGDGSPAVYTCVDDLCRGYDLTRLSYGRSIFTEHVLGFELVPPSLFNVVVAIRNEATRTNRAVRLPVSTAAAPEGITLFYGLYNAVKEFCLRHQLDPPLLRHLDKYYAGLPPELKQTRVNLPAHSRYGPQAVDAR
chain 3: […]
notes: also called TB40/E trimer; CMV trimer; not shown: C-terminal FLAG tag; C-terminal superfolder GFP (Pedelacq et al. 2006)
**Q.** Does B1 bind?
**A.** no binding
